Experimental data: patent US20180243434A1 (INSERM INSTITUT NATIONAL DE LA SANT ET DE LA RECHERCHE M …, published 2018)

T1: endogenous nectin-4 on SUM190 cells (human, UniProt Q96NY8 32-510)
T1 sequence (looked up): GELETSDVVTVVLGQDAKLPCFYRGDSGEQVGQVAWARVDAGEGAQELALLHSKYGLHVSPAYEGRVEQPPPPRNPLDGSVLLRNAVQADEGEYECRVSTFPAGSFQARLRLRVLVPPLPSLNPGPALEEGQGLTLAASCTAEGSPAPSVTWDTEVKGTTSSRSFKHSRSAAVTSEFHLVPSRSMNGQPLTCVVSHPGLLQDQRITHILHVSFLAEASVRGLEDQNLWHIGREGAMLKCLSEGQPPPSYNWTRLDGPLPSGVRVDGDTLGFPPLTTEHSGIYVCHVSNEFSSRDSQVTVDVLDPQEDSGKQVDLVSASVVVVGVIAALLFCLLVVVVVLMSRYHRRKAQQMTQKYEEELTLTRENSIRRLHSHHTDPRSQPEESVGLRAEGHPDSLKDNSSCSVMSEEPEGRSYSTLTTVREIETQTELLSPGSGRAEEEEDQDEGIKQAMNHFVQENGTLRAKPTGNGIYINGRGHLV

T2: N-terminal Flag-tagged nectin4 expressed in MDA-MB-231 cells (human, UniProt Q96NY8 32-510)
T2 sequence (looked up): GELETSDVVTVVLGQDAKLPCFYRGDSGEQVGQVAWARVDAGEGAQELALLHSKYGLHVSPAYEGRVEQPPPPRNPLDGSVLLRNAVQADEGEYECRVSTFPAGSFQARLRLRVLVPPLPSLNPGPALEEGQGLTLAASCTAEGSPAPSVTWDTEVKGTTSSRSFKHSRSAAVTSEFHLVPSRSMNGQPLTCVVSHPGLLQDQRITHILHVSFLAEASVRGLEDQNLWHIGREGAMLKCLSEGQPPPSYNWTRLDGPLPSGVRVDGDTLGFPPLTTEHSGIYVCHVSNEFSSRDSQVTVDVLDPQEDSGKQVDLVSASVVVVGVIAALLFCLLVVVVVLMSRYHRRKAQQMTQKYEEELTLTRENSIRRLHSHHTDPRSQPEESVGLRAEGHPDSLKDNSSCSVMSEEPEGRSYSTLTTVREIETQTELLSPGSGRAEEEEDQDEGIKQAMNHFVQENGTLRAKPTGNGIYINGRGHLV

T3: nectin1V-Fc (comprising only the IgV domain) (UniProt Q15223 31-143, limits assumed)
T3 construct: domain: IgV domain; not shown: Fc part
T3 sequence (looked up): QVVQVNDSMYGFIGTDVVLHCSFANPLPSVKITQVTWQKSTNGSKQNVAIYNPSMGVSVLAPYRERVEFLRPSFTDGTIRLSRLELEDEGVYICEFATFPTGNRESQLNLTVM


Experiments:
[1] = biological target: T1, endogenous nectin-4 on SUM190 cells; test: cell-based or functional assay
[2] = biological target: T2, N-terminal Flag-tagged nectin4 …; test: cell-based or functional assay
[3] = biological target: T3, nectin1V-Fc (comprising only the IgV …); test: ELISA, plate coated with 5 ug/ml nectin1V-Fc
Description: A: Detection by ELISA. Ninety-six-well trays were coated with 5 ug/ml of nectin4V-Fc or nectin1V-Fc (comprising only the IgV domain) overnight at +4° C. as indicated. N41mab recognizes the nectin4V-Fc (bar 3) not the nectin1V-Fc (bar 1).
A sandwich enzyme-linked immunosorbent assay was used to control specificity of N41mab antibody and to perform competition assays between mabs. Ninety-six-well trays were coated with 5 μg/ml of nectin4V-Fc or nectin1V-Fc (comprising only the IgV domain) overnight at +4° C. After washes and saturation with PBS 1% BSA cells were incubated overnight with 0.625 μg/ml of N41mab. Peroxydase conjugated goat anti mouse antibody was incubated 2 h at 25° C. (Pierce). In the case of competition, binding of peroxidase conjugated N41mab was measured in the presence of vairable concentration of “cold” mab. One hundred ul of peroxidase substrate was added (One Step ABST, Pierce), and OD was read at 405 nm.
A sandwich enzyme-linked immunosorbent assay was used to control the specificity of the N41mab antibody. Ninety-six-well trays were coated with 5 μg/ml of nectin4V-Fc or nectin1V-Fc (comprising only the IgV domain) overnight at +4° C. After washes and saturation with PBS 1% BSA cells were incubated overnight with 0.625 μg/ml of mab1/N41mab. […] One hundred μ1 of peroxidase substrate was added (One Step ABST, Pierce), and OD was read at 405 nm.

| IC50 (cell growth, alamarBlue) [1] | IC50 (cell growth, alamarBlue) [2] | binding result [3] | Binder |
| --- | --- | --- | --- |
| 4 ng/mL | 2 ng/mL | – | N41mab-vcMMAE (antibody, V domains shown, monomethyl auristatin-E (MMAE) conjugated through the MC-Val-Cit-PAB linker; drug to antibody ratio 4.73; sites not stated) VH: QVQLKQSGPGLVQPSQSLSITCTVSGFSLTNYGVHWVRQSPGKGLEWLGVIWSGGSTDYNAAFISRLSISKDTSKSQVFFKMNSLQADDTAIYYCARELIHAMDNWGQGTSVTVSS VL: DIQMTQSPASLSVSVGETVTITCRASENIYSNLAWYQQKQGNSPQLLVFAATNLADGVPSRFSGSGSGTQYSLKINSLQSEDFGTYYCQHFWGTPTFGGGTKLEIK |
| – | – | no binding (tested: 0.625 µg/ml) | N41mab antibody (antibody, V domains shown, Mouse monoclonal antibody from a hybridoma (mice immunized with nectin4 V-Fc); also called mab1; Mab1) VH: QVQLKQSGPGLVQPSQSLSITCTVSGFSLTNYGVHWVRQSPGKGLEWLGVIWSGGSTDYNAAFISRLSISKDTSKSQVFFKMNSLQADDTAIYYCARELIHAMDNWGQGTSVTVSS VL: DIQMTQSPASLSVSVGETVTITCRASENIYSNLAWYQQKQGNSPQLLVFAATNLADGVPSRFSGSGSGTQYSLKINSLQSEDFGTYYCQHFWGTPTFGGGTKLEIK |
